Data on 17 sequences can be found in the DeepSol protein solubility set.

This data set is described as follows: soluble on expression in E. coli; label from the status in PepcDB or PDB records.
As to “MGIIDKIKAIEEEMARTQKNKATEHHLGLLKGKLARYRQQLLADEAGSGGGGGSGFEVAKSGDARVVLIGYPSVGKSSLLGKITTTKSEIAHYAFTTLTSVPGVLKYQGAEIQIVDLPGIIYGASQGKGRGRQVVATARTADLVLMVLDATKSEHQRASLEKELENVGIRLNKEKPNIYYKKKETGGVKVTFTSPPKTNLTEQAIKMILRDYRIHNAEVLVRDDQCTIDDFIDVINEQHRNYVKCLYVYNKIDAVSLEEVDKLAREPNTVVMSCEMDLGLQDVVEEIWYQLNLSRVYTKKRGVRPVFDDPLVVRNNSTIGDLCHGIHRDFKDKFKYALVWGSSAKHSPQKCGLNHRIDDEDVVSLFAK”, the “soluble on expression in E. coli” value was “soluble”. As to “MGIMEAERKTTGWAARDPSGILSPYTYTLRETGPEDVNIRIICCGICHTDLHQTKNDLGMSNYPMVPGHEVVGEVVEVGSDVSKFTVGDIVGVGCLVGCCGGCSPCERDLEQYCPKKIWSYNDVYINGQPTQGGFAKATVVHQKFVVKIPEGMAVEQAAPLLCAGVTVYSPLSHFGLKQPGLRGGILGLGGVGHMGVKIAKAMGHHVTVISSSNKKREEALQDLGADDYVIGSDQAKMSELADSLDYVIDTVPVHHALEPYLSLLKLDGKLILMGVINNPLQFLTPLLMLGRKVITGSFIGSMKETEEMLEFCKEKGLSSIIEVVKMDYVNTAFERLEKNDVRYRFVVDVEGSNLDA”, the “soluble on expression in E. coli” value is recorded as “soluble”.

In the case of “MGINVQFRPMTIHDIDEVVQVERASFTSPWSRESFYNELMYNRYAKYIVMVYNGRIIGYGGMWLVIDEAHVTNVAVLPQFRGQKLGEALMRRLMDMARQHGAATMTLEVRVSNHVAQSLYRKLGFRNGGIRKRYYPDNFEDALVMWVKLR”, the “soluble on expression in E. coli” value was “not soluble”.

On to “MGKEKSHINVVVIGHVDSGKSTTTGHLIYKCGGIDKRTIEKFEKEAAELGKGSFKYAWVLDKLKAERERGITIDIALWKFETPKYQVTVIDAPGHRDFIKNMITGTSQADCAILIIAGGVGEFEAGISKDGQTREHALLAFTLGVRQLIVAVNKMDSVKWDESRFQEIVKETSNFIKKVGYNPKTVPFVPISGWNGDNMIEATTNAPWYKGWEKETKAGVVKGKTLLEAIDAIEQPSRPTDKPLRLPLQDVYKIGGIGTVPVGRVETGVIKPGMVVTFAPAGVTTEVKSVEMHHEQLEQGVPGDNVGFNVKNVSVKEIRRGNVCGDAKNDPPKGCASFNATVIVLNHPGQISAGYSPVLDCHTAHIACRFDELLEKNDRRSGKKLEDHPKFLKSGDAALVKFVPSKPMCVEAFSEYPPLGRFAVRDMRQTVAVGVIKSVDKTEKAAKVTKAAQKAAKK”, for which the “soluble on expression in E. coli” value is “soluble”. Under “MGKIIAIANQKGGVGKTTTSVNLGAGLAQVGKKVLLVDIDAQGNATTGVGIEKSELDQCIYNVLVEDADVQGVIQKTATENLDVLPATIQLAGAEIELVPTISREVRLQRALQPVRDEYDYIIIDCPPSLGLLTINALTAADSVIIPVQCEYYALEGLSQLLNTVRLVQKHLNKNLAIQGVLLTMLDARTNLGIQVIDEVKKYFRDKVYRSIIPRNVRLSEAPSHGKPIMQYDAKSRGAEVYIDLAEEVIAGG” stands “not soluble”. On to “MGKIVLTYRMPHNWNINPFLKEYQRLLQRAIDEIWDNTSWKEKKVKHRYSLGNEEYRYYETIRLIPYFPQSNDFKRGLRNKLLREWPFAKHYVDSAIKTAYSILKSWRQNYLKGRRKRVKPVVKRKFVRVKTTLMKVEGSKIRITIKPREEYLELDFSREWFYERIKDWKVGELIIRERDILLTFSKEVEFSGRIKIGIDSNLTSLDVYHPEKGWIRVDLSELHRISETYDRIIDMLKSIQRKAPKRIGLLLEKYWTRRRNRIEDYLNKLAVQLSREFPDAIFIFEGLNKFKMLQNGSRKFNRKLSRATWKKIVGKLSYRVPIEFVNPAYTSSTCPICGSKLESRNGLVECFNCGFKADRQFVGAFNILMRGLGVALSGVERDDLPPNEPRGELNAMRPKSVVRVDLNGRRFTHIHSLEHHHHHH”, for which the “soluble on expression in E. coli” value is “soluble”.

Regarding “MGKKELKRGLVVDREAQMIGVYLFEDGKTYRGIPRGKVLKKTKINAGDYVWGEVVDPNTFAIEEVEERKNLLIRPKVANVDRVIIVETLKMPEFNNYLLDNMLVVYEYFKVEPVIVFNKIDLLNEEEKKELERWIAFTGMRATTFSRLEHHHHHH”, the “soluble on expression in E. coli” value is “not soluble”. Under “MGKLAFLFPGQGSQAVGMGKQLAENNKEVANVFAKADEVLQDSLSEVIFEGSQEKLTLTTNAQPALLTTSFAILTALKEYDITPDFVAGHSLGEYSALVAAGALTFEDAVYAVRKRGEYMEEAVPGGEGAMAAILGADPHMLKRVTEEVTGEGYAVQIANMNSTKQIVISGTKQGVEIASQRAKENGAKRAIPLKVSGPFHSALMKPAAEKFQSVLNEITIQDTNIPVIANVTADVITSGAHIQEKLIEQLYSPVLWYPSIEYMVNQGVDTFIEIGPGKVLAGLMKSIDSSVKAYAIYDEETLKDTISNLRGEN” stands “not soluble”; under “MGKVYKKVELVGTSEEGLEAAIQAALARARKTLRHLDFFEVKEIRGTIGEAGVKEYQVVLEVGFRLEET”, “soluble”. Under “MGLDISDETLKIQKKKENENRVIILMIPGNPGNEGFYAHFGREVLQNLIKKDEDEQKNLKNQYLFYTVSSLNHVRMPDHLKDDGEHRNHDRISLEEQVNHKLSFVKEHLPRGKQLYILGHSIGSYMMLRIIPEVIKEGFHVEKAVGLFPTIVHMANSPNGKRLHGTLATLNHHDWLTKTICWWVDYLPNSIKKFLVGLNLRHPNTPPEIVDAAVELVHMDVFRNIVHMSNDELDIVLDLDERLLEKQDVVHFYYGLKDGWCPVQHGYSMRDRLGEEQVTLDEDNCEHAFVISEGDIMARNVIKYFD” stands “not soluble”; under “MGLDTIEKGADGLDSIKSLAFVYGETDNPYTKTSELFTWLFGHEIADTVLLLLNDHIYILGSNRKVEFFGSVTGDNQSSGKVPTVSTLLRDKTDKDAGNFEKLIDHIKSAGGDVGNFVKEKFSSEFVSSWNKALEEGGVNKNDVTLAFTHLFAVKDDKEMDLIRKSAQATTASWTAARARYVEISDNEKVLIVLKIVELGVLLRVRHSVLSNQFAAFMKDSKVQQALAKYEADTCYDPIKMLIFVDRKYDSVVVPIFGIPVPFHISMIKNCSQSVEGDLTYLRINFATPGSQVGKDSGQFPHPLAHYMKEFTFRASNIKDHHSDSTAPSRNLSTAFRFIKEMQKRFKSEEAEQREKEGAVKQDKLILSQNKLNPKLNLLICPNIIQKLITGSLEAHTNGFRFLFNSFSRYTSLRAFFEEGGWSFLNAESDNEEAMDDSDDSDAYDPEEEDASAGSGSESDEDESEGEETESDDDDEGSLDSDEFVQPIFAF”, “not soluble”; under “MGLIDVLKSFKSPSGREIRILLLGLDNAGKTTILKQLSSEDVQHVTPTKGFNVKTVAAMGDIRLNVWDIGGQRSIRPYWSNYYENIDTLIFVIDSNDKKRFDEMNIELGELLDEEKLRKVPVLIFANKQDLVTAASSEEITRKLNLDLLRDRTWHIQACSALKNEGINDGITWVASNLKPASKK”, “not soluble”.

For “MGLIKENRMDSLKVSDYMTLQAVTFSPDMSLSAALEKVVRSDNMGGPVIDAQRHVIGFLSEQDLLDKLVHASYHCQDAHLVSDCMHKEVLSVAPETSIIELAAMMKVGKPKMYPVVSDGKLVGVITRRDVLRALSKTLTNCFQHPV”, the “soluble on expression in E. coli” value is on record as “not soluble”. For “MGLKPCDYPDIKHGGLYHENMRRPYFPVAVGKYYSYYCDEHFETPSGSYWDHIHCTQDGWSPAVPCLRKCYFPYLENGYNQNHGRKFVQGKSIDVACHPGYALPKAQTTVTCMENGWSPTPRCIRVKTCSKSSIDIENGFISESQYTYALKEKAKYQCKLGYVTADGETSGSITCGKDGWSAQPTCI” the value was “soluble”. Regarding “MGLLTNDIIEESAWEALEKSILYYKGRPVGTVAAFDASVEALNYDQCFVRDFVSSALIFLIKGKTDIVRNFLEETLKLQPKDRQLDAYKPGRGLIPASFKVVSDNGEEYLEADFGEHAIARVTPVDSCLWWILLLRAYVVASKDFSLAYQPEFQTGIRLIMEICLANRFDMYPTLLVPDGACMIDRRLGIYGHPLELQVLFYAALRAAREMLICQGNQDVVEAIDNRLPLLCAHIRQHYWIDINRLNAIYRFKSEEYGKAAVNLFNIYVDSIPYYELDKWLPKKGGYLAGNVGPSQLDTRFFALGNLMAIISDLATEEQSQAIMTLIEDRWEDLVGDMPMKICYPALENEEYRIVTGCDPKNIPWSYHNAGSWPVLMWMLAAASVKAGKPYIAGKAIEIAQARLLEDEWPEYYDGKKGRLIGKQARKYQTWTIAGFLLAAELMKNPSLLSLISFDKLPSELVSRACEFEIGSVDASISRLEHHHHHH”, the “soluble on expression in E. coli” value was “soluble”. Under “MGLQTYNAKRSFDKTPEPKGTKAEKPGSSFVIQKHDARRLHYDFRLEMDGVLKSWAVTRGPSLDPEDKRLAVHVEDHPLSYGDFEGVIPKGQYGGGTVIVWDRGIWQPIGDAGKGYRKGHLEFELEGEKLKGRWHLVRMHGKPGESRENWLLIKGDDLEHHHHHH” stands “not soluble”. For “MGLRPVSYTDSSVTPSVDGSIVLTAASVQSMPDSEESRLYGDDATYLAEGGRRQCPYTSNGPTFMETASFKKKRSKSADIWREDSLEFSLSDLSQEHLTSNEEILGSAEEKDCEEARGMETEASPRQLSTCQRANSLGDLYAQKNSGVKANGGPRNRFSSYCRNLVSDIPDLAKHKMPPAAAEETPPYSNYNTLPCRKSHCLSEGATNPQISLSKSMQGRRAKTTQDVNTGEGSEFADSGIEGATTDTDLLSRRSNATNSSYSPPTGRAFVGSDSGSSSTGDAARQGVYENFRRELEMSTTNSESLEEAGSAHSDEQSSGTLSSPGQSDILLTAAQGTVRKAGALAVKNFLVHKKNKKVESATRRKWKHYWVSLKGCTLFFYETDGRSGIDHNSVPKHAVWVENSIVQAVPEHPKKDFVFCLSNSLGDAFLFQTTSQTELENWITAIHSACAAAVARHHHKEDTLRLLKSEIKKLEQKIDMDEKMKKMGEMQLSSVTDSKKKKTILDQIFVWEQNLEQFQMDLFRFRCYLASLQGGELPNPKRLLAFASRPTKVAMGRLGIFSVSSFHALVAARTGEIGVRRRTQAMSRSASKRRSRFSSLWGLDTTSKKKQGRPTINQVFGEGTDAVKRSLEGIFDDTVPDGKREKEVVLPSVHQHNPDCDIWVHEYFTPSWFCLPNNQPALTVVRPGDTARDTLELICKTHQLDHSAHYLRLKFLMENRVQFYIPQPEEDIYELLYKEIEICPKVTQNIHIEKSDAAADNYGFLLSSVDEDGIRRLYVNSVKETGLASKKGLKAGDEILEINNRAAGTLNSSMLKDFLSQPSLGLLVRTYPEPEGGVELLENPPHRVDGPVDLGESPLAFLTSNPGHSLSSEQGSSAETAPEEGEGPDLESSDETDHSSKSTEQVAAFCRSLHEMSPSDSSPSPQDATSPQLATTRQLSDADKLRKVICELLETERTYVKDLNCLMERYLKPLQKETFLTQDELDVLFGNLTEMVEFQVEFLKTLEDGVRLVPDLEKLEKVDQFKKVLFSLGGSFLYYADRFKLYSAFCASHTKVPKVLVKAKTDTAFKAFLDAQNPRQQHSSTLESYLIKPIQRVLKYPLLLRELFALTDAESEEHYHLDVAIKTMNKVASHINEMQKIHEEFGAVFDQLIAEQTGEKKEVADLSMGDLLLHTSVIWLNPPASLGKWKKEPELAAFVFKTAVVLVYKDGSKQKKKLVGSHRLSIYEEWDPFRFRHMIPTEALQVRALPSADAEANAVCEIVHVKSESEGRPERVFHLCCSSPESRKDFLKSVHSILRDKHRRQLLKTESLPSAQQYVPFGGKRLCALKGARPAMSRAVSAPSKSLGRRRRRLARNRFTIDSDAISASSPEKEPQQPAGGGDTDRWVEEQFDLAQYEEQDDIKETDILSDDDEFCESLKGASVDRDLQEQLQAASISQRARGRRTLDSHASRMTQLKKQAALSGINGGLESASEEVIWVRREDFAPSRKLNTEI” the value was “soluble”.
